Key:
[1] = target: T1, M1R-GLG3 (human M1 receptor) (Homo sapiens, UniProt P11229); assay: BRET assay, HEK cells transiently co-transfected with M1R-GLG3 and a Gγ construct; format: cell-based; design: key to the marks not given beside the values; settings: cells coexpressing M1R-GLG3 and the Gγ construct, exposed to Acetylcholin
T1 construct: 35; hM1R; RGLG-3; Gαq; 86, 87; FP-Gγ9; 3, 4; 11A, 11B; expressed in transfected cells; host or cells: HEK cells, transient
T1 sequence (P11229 with tags, fused parts or gaps): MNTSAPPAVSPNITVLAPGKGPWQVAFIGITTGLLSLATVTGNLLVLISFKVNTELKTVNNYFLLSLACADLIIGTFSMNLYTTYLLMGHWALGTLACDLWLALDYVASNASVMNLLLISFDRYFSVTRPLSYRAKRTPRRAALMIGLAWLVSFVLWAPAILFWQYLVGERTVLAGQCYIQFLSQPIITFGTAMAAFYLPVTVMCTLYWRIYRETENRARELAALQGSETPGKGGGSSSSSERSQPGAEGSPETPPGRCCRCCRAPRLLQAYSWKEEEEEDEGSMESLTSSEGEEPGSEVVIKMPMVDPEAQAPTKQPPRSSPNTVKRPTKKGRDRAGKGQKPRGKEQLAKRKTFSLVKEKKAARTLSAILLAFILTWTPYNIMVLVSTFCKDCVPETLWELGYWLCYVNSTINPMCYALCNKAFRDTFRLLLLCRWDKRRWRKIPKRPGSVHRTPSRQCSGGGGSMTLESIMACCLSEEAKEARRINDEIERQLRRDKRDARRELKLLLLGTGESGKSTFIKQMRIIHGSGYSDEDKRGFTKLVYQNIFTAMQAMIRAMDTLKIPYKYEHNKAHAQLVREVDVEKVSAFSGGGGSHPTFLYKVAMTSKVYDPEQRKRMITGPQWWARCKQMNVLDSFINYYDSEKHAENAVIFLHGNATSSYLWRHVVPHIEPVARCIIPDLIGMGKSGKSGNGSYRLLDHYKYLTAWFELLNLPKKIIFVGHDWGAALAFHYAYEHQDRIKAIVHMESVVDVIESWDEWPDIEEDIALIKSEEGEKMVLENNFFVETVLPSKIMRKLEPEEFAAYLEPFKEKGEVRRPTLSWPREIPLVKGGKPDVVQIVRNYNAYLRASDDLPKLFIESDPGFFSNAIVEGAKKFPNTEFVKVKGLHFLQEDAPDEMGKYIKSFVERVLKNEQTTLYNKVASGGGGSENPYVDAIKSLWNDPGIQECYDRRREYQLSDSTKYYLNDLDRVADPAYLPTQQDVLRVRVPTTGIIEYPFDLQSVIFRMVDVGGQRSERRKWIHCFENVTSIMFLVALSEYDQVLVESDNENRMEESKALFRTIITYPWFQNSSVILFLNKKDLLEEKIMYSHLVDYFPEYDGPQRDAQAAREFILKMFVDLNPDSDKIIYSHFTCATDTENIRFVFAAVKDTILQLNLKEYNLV

[2] = target: T2, A2AR-RGL (human A2A receptor) (Homo sapiens, UniProt P29274); assay: BRET assay, HEK cells transiently co-transfected with A2AR-RGL and a Gγ construct; format: cell-based; design: key to the marks not given beside the values; settings: cells coexpressing A2AR-RGL and the Gγ construct, exposed to Adenosine
T2 construct: ID; NOs; expressed in transfected cells; host or cells: HEK cells, transient

[3] = target: T3, GHSR-RLG (hGHSR) (Homo sapiens, UniProt Q92847); assay: BRET assay, HEK cells transiently co-transfected with GHSR-RLG and a Gγ construct; format: cell-based; design: key to the marks not given beside the values; settings: cells coexpressing GHSR-RLG and the Gγ construct, exposed to Ghrelin
T3 construct: 37; hGHSR; RLG; Gαq; 90, 91; FP-Gγ9; 3, 4; 13; expressed in transfected cells; host or cells: HEK cells, transient

[4] = target: T4, GLP1R-L-G (human GLP-1 receptor) (Homo sapiens, UniProt P43220); assay: BRET assay, HEK cells transiently co-transfected with GLP1R-L-G and a Gγ construct; format: cell-based; settings: cells coexpressing GLP1R-L-G and the Gγ construct, exposed to GLP-1
T4 construct: ID; expressed in transfected cells; host or cells: HEK cells, transient
T4 sequence (P43220 with tags, fused parts or gaps): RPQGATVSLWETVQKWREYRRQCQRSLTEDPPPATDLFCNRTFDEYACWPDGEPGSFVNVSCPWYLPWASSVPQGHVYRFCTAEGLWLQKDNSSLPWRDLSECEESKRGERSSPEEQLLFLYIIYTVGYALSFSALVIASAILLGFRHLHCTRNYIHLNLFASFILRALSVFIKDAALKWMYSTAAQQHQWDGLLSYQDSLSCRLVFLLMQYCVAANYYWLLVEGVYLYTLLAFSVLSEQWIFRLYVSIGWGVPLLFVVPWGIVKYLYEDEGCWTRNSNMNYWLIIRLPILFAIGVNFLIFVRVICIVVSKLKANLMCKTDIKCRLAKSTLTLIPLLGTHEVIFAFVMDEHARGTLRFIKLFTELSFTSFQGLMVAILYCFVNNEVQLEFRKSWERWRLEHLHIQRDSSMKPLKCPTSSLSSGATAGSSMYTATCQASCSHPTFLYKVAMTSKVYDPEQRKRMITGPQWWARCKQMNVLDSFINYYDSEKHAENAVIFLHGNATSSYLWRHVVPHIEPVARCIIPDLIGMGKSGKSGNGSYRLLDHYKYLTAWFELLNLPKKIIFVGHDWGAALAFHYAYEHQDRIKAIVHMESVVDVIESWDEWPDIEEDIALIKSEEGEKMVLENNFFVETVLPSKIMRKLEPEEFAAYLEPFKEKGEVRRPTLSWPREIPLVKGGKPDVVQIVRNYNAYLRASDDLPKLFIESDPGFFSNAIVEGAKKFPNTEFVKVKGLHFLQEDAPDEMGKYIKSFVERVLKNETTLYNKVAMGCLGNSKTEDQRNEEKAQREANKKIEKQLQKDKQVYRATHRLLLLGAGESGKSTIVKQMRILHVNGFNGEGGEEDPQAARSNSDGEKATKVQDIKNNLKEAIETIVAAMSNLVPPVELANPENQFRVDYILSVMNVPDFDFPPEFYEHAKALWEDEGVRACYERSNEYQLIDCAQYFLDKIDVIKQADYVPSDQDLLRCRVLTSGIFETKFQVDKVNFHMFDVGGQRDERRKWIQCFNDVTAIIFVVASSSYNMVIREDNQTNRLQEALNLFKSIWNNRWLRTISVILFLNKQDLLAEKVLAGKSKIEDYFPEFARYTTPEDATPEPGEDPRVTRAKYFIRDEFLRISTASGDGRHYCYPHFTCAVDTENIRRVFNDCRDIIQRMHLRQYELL

[5] = target: T5, GIPR-L-G (human GIP receptor) (Homo sapiens, UniProt P48546); assay: BRET assay, HEK cells transiently co-transfected with GIPR-L-G and a Gγ construct; format: cell-based; settings: cells coexpressing GIPR-L-G and the Gγ construct, exposed to GIP
T5 construct: ID; NOs; expressed in transfected cells; host or cells: HEK cells, transient

[6] = target: T6, M4R-GLG2 (human muscarinic acetylcholine receptor M4) (Homo sapiens, UniProt P08173); assay: BRET assay, HEK cells transiently co-transfected with M4R-GLG2 and a Gγ construct; format: cell-based; design: key to the marks not given beside the values; settings: cells coexpressing M4R-GLG2 and the Gγ construct, exposed to ACh
T6 construct: ID; NOs; expressed in transfected cells; host or cells: HEK cells, transient
T6 sequence (P08173 with tags, fused parts or gaps): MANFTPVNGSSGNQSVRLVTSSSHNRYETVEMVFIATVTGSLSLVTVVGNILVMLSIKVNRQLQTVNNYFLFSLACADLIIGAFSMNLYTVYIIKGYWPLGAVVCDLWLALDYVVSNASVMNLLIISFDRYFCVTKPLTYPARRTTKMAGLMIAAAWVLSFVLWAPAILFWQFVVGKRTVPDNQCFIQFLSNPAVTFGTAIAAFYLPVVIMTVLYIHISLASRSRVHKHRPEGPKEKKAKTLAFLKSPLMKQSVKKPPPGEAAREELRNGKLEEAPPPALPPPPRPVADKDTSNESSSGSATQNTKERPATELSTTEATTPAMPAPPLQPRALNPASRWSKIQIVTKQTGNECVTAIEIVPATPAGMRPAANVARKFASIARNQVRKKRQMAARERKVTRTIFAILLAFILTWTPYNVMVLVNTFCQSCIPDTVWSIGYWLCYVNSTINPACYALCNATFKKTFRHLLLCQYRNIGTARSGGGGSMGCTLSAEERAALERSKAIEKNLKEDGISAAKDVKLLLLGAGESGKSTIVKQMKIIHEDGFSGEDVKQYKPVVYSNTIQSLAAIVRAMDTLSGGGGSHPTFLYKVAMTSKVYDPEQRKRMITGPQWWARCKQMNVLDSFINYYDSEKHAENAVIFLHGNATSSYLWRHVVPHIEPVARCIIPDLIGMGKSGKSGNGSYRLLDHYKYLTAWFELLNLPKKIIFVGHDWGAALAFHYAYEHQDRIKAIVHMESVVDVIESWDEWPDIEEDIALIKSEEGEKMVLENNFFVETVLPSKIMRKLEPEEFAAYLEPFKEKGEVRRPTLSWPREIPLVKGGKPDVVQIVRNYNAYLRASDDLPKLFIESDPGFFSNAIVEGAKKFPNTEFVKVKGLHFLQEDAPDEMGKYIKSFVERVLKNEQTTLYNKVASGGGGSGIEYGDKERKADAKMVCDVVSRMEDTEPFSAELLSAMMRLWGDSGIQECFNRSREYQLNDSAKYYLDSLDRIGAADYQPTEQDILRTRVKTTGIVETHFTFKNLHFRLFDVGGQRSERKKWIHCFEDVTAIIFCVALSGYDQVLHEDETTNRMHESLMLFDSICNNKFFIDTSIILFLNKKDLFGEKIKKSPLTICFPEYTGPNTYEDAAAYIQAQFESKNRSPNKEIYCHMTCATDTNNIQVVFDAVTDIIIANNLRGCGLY

[7] = target: T7, GCGR-RLG (glucagon receptor) (Homo sapiens, UniProt P47871); assay: BRET assay, HEK cells transiently co-transfected with GCGR-RLG and a Gγ construct; format: cell-based; design: key to the marks not given beside the values; settings: cells coexpressing GCGR-RLG and the Gγ construct, exposed to Glucagon
T7 construct: 39; GCGR; RLG; Gαs; 94, 95; FP-Gγ9; 3, 4; 15; expressed in transfected cells; host or cells: HEK cells, transient
T7 sequence (P47871 with tags, fused parts or gaps): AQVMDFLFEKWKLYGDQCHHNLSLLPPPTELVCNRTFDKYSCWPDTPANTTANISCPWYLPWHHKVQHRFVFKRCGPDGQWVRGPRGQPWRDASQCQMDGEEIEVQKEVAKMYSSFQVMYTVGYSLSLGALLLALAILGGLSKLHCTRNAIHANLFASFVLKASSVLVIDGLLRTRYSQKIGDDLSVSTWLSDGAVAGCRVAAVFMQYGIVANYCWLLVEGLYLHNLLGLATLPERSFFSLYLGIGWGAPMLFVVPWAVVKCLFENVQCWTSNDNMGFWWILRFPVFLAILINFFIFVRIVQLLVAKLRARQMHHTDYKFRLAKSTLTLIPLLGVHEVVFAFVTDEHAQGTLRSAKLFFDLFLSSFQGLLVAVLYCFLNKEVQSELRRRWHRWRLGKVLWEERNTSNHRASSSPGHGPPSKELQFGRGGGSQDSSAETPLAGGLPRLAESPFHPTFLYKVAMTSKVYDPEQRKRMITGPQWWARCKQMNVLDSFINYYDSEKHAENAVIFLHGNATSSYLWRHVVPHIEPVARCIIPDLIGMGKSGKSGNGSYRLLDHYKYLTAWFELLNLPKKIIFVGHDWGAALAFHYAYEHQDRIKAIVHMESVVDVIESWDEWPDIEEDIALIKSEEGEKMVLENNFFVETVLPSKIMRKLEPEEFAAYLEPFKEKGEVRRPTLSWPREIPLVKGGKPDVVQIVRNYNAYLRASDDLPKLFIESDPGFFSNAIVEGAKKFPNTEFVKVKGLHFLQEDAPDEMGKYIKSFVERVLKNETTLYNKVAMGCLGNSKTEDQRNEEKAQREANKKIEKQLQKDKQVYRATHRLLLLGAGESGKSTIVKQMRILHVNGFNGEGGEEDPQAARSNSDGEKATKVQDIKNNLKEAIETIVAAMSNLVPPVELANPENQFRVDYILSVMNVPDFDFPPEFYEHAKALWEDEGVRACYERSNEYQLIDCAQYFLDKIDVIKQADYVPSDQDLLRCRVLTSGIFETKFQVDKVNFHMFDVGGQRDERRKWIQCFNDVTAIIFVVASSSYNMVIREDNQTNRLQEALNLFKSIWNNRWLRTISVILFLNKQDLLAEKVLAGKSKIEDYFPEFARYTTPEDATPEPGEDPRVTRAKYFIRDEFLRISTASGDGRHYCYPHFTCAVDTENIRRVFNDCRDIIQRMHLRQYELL

[8] = target: T8, chimeric M4R (RGLG-2) (Homo sapiens, UniProt P08173); assay: BRET assay of the invention, cells co-expressing chimeric M4R (RGLG-2) and FP-Gγ9; format: cell-based; settings: cells incubated over night with 100 ng/ml PTX
T8 construct: ID; NOs; expressed in transfected cells
T8 sequence (P08173 with tags, fused parts or gaps): as the sequence (P08173 with tags, fused parts or gaps) above
Protocol: The same cells as described for FIG. 10 A were used. […] The decrease of the signal below baseline in the PTX-treated condition confirms a constitutive activity that has been described for the M4R. […]
A typical experiment has the following sequence.
The assay of the present invention was compared with a state of the art calcium based assay. […] In calcium-based assay, a calcium flux is measured in cells co-expressing recombinant M4R and modified Gαq. In the assay in accordance with the present invention, BRET in measured in cells co-expressing a chimeric M4R according to RGLG-2 (construct and cell-line from FIG. 2C, Table 6) and FP-Gγ9 (as described in FIG. 10A). The data represent mean values and they are normalized to the maximal effect of the orthosteric agonist after the subtraction of the basal values.

[9] = target: T9, M4R RGLG-2 with Gαo C351S (Homo sapiens, UniProt P08173+P09471, C351S); assay: BRET assay, chimeric M4R with PTX-insensitive mutant (C351S) of Gαo in the RGLG-2 fusion construct; format: cell-based; settings: same conditions as FIG. 10B
T9 construct: ID; NOs; expressed in transfected cells
T9 sequence (P08173+P09471 fused P09471:C351S): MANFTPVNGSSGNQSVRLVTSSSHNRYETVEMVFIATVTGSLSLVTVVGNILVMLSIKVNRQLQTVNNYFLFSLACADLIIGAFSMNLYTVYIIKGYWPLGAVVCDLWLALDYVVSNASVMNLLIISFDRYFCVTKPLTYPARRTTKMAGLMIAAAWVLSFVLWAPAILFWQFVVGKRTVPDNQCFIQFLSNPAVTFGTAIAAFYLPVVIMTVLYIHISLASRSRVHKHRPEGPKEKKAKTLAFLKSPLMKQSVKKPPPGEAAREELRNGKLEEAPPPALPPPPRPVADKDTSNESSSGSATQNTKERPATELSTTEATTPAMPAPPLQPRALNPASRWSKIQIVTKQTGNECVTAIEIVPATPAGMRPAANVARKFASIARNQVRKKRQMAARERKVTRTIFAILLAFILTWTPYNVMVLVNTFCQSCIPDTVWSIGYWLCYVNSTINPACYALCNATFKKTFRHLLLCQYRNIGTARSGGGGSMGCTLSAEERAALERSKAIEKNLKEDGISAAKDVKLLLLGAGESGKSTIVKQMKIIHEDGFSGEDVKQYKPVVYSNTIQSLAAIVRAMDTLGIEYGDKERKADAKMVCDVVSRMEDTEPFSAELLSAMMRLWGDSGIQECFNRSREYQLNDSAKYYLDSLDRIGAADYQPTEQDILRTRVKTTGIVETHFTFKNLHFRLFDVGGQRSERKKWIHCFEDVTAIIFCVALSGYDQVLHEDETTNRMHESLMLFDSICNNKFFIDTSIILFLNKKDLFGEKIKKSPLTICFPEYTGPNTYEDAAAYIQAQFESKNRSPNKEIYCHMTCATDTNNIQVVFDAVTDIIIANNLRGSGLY
Protocol: Cells lines were prepared as described above (Examples 13-34).

[10] = target: human M1 receptor (M1R) RGLG-3 (Homo sapiens, UniProt P11229)
Protocol: Cells co-express a construct comprising a human M1 receptor (M1R) fused to a split Gαq protein harboring a luminescent protein (construct RGLG-3, FIG. 2C, Table 6) and the FP-Gγ9 construct (as above).
5 or 10 minutes after the addition of coelenterazine H to the cells, the read plate is placed in the FLIPR tetra and the measurement begins.
A second plate is a compound plate, containing a mix of an agonist at its EC20 or EC80 and candidate agents to be tested if the protocol run on the FLIPR tetra is a one-addition (or co-addition) protocol (as in FIGS. 3A, 3B, 4, 5A, 6, 7B, 7C, 10B, 10C, 11B, 13, 14, 19 and 20). Alternatively, a two-addition protocol can be run on the FLIPR tetra, containing two compound plates, of which the first one usually contains different candidate agents and the second one an agonist at its EC20 or EC80 (as in FIGS. 5B, 5C, 7A, 9, 10A, 11A, 12, 15, 16, and 18). […]
The camera is adjusted in such a way that the gain is set to a maximum of 28,000× and the shutters are opened 100%. […] The read interval (emission filter 1, emission filter 2) is adjusted to the minimal value that results from the addition of the two exposure times (=2×0.1 to 3 seconds) plus the time needed to move the filters from position 1 to position 2 (0.3 sec), resulting in a maximal read frequency of 0.5 seconds (2 Hz). […]

Substance	HTS compat. [1]	HTS compat. [2]	HTS compat. [3]	HTS compat. [4]	HTS compat. [5]	HTS compat. [6]	HTS compat. [7]	effect on BRET signal changes in response to Ach [8]	effect on BRET signal changes in response to Ach, C351S Gαo mutant [9]	effect on BRET signal changes in response to Ach [10]
FP-Gγ9: fusion protein of yellow fluorescent protein YPet and human G-protein gamma9, SEQ. ID. NOs. 3, 4	++	++	++	++	++	++	++			
PTX								effectively blocks the BRET signal changes	rescued by the C351S substitution	no effect on the BRET signal changes

From patent US20130035256A1, “Chimeric Polypeptides Useful in Proximal and Dynamic High-Throughput Screening Methods” (ADDEX PHARMA SA, priority 2010, published 2013)
